{"source": "paper PMC4264537", "about": "(Molecular microbiology, 2014)", "target": "the molecule itself", "assay": "cross-linking", "data": [{"protein": "CstR (CsoR-like sulfurtransferase repressor), wild type, Staphylococcus aureus strain Newman (natural protein, UniProt Q9XBC0 1-86, looked up) MNYDKKMINRINRIQGQLNGIIKMMEEGKDCKDVITQISASKSSLQRLMGIIISENLIECVKVAADDEESSQELINEAVNLLVKSK", "values": [{"measurement": "stoichiometry N", "result": 2}]}]}
